T1: SYNPO2L, Q9H987
T1 sequence (Q9H987 1-98, limits assumed, looked up): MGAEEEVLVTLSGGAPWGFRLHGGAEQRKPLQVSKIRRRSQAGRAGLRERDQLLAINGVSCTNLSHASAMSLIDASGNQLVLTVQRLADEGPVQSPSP

T2: MPDZ_7, O75970
T2 sequence (O75970 1146-1253, limits assumed, looked up): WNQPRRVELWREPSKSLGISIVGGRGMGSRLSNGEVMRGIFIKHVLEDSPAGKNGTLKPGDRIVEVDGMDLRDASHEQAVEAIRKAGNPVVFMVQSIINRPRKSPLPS

T3: PTPN13_5, Q12923
T3 sequence (Q12923 1877-1975, limits assumed, looked up): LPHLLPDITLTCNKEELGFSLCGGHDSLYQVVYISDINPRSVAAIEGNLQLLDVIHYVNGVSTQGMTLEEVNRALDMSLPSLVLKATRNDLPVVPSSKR

T4: SHROOM2, Q13796
T4 sequence (Q13796 21-118, limits assumed, looked up): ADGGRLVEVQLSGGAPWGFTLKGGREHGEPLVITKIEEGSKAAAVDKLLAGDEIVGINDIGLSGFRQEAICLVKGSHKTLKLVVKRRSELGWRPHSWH

T5: MPDZ_6, O75970
T5 sequence (O75970 1003-1099, limits assumed, looked up): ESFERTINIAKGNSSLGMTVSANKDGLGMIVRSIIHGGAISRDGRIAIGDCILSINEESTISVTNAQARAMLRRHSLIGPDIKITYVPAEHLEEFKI

T6: USH1C_1, Q9Y6N9
T6 sequence (Q9Y6N9 82-179, limits assumed, looked up): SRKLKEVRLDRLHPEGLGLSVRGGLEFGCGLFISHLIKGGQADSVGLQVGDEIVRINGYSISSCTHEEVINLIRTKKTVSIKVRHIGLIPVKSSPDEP

T7: SNTB2, Q13425
T7 sequence (Q13425 110-208, limits assumed, looked up): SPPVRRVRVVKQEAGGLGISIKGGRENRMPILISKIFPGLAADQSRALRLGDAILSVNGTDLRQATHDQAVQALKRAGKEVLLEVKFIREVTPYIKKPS

T8: USH1C_2, Q9Y6N9
T8 sequence (Q9Y6N9 206-303, limits assumed, looked up): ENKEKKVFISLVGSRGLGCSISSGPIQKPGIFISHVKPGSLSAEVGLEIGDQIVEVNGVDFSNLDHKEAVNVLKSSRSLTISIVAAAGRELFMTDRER

T9: NHERF1_2, O14745
T9 sequence (O14745 149-244, limits assumed, looked up): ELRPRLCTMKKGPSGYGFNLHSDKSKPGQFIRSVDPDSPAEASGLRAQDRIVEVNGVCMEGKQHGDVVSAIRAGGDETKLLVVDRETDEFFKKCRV

T10: PDZD2_4, O15018
T10 sequence (O15018 723-823, limits assumed, looked up): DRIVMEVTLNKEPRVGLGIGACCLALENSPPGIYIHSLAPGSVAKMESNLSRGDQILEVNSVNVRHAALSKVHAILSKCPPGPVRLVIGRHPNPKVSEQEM

T11: PARD6B, Q9BYG5
T11 sequence (Q9BYG5 152-260, limits assumed, looked up): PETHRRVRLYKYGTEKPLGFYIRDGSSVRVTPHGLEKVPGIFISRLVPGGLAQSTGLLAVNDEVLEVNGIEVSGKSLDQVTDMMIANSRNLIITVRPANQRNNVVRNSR


What follows are binders tested against RGS3, P49796-9 (assay: holdup assay). Conditions: plain residues with an end cap or a label only (N-terminal biotin on a linker: ttds).
Set-up: key: below the threshold = too weak to quantify, mostly under pKd 3.1 to 4

Sequence of RGS3, P49796-9 (P49796 other isoform, or with tags, fused parts or gaps): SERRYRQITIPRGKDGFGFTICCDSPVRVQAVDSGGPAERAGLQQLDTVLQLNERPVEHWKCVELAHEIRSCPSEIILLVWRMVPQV

pKd	Binder
below the threshold	QPGTPTRTAV [MAP2K2, P36507]

What follows are binders tested against CNKSR3, Q6P9H4 (assay: holdup assay). Conditions: plain residues with an end cap or a label only (N-terminal biotin on a linker: ttds).
Set-up: key: below the threshold = too weak to quantify, mostly under pKd 3.1 to 4

Sequence of CNKSR3, Q6P9H4 (Q6P9H4 203-303): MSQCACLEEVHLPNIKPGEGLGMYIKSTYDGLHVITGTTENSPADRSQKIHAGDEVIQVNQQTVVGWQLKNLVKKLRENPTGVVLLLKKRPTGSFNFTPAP

pKd	Binder
4.05	QPGTPTRTAV [MAP2K2, P36507]

The binders below were run against IL16_2, Q14005 (assay: holdup assay). Conditions: plain residues with an end cap or a label only (N-terminal biotin on a linker: ttds).
Set-up: key: below the threshold = too weak to quantify, mostly under pKd 3.1 to 4

Sequence of IL16_2, Q14005 (Q14005 350-450): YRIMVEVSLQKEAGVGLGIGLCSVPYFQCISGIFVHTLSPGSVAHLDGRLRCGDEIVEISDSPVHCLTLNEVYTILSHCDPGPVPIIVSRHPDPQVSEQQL

pKd	Binder
below the threshold	QPGTPTRTAV [MAP2K2, P36507]

What follows are binders tested against PARD3B_2, Q8TEW8 (assay: holdup assay). Conditions: plain residues with an end cap or a label only (N-terminal biotin on a linker: ttds).
Set-up: key: below the threshold = too weak to quantify, mostly under pKd 3.1 to 4

Sequence of PARD3B_2, Q8TEW8 (Q8TEW8 376-471): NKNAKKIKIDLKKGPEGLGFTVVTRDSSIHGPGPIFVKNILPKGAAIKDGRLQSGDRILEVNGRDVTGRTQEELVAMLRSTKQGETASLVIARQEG

pKd	Binder
below the threshold	QPGTPTRTAV [MAP2K2, P36507]

What follows are binders tested against SDCBP_1, O00560 (assay: holdup assay). Conditions: plain residues with an end cap or a label only (N-terminal biotin on a linker: ttds).
Set-up: key: below the threshold = too weak to quantify, mostly under pKd 3.1 to 4

Sequence of SDCBP_1, O00560 (O00560 111-198): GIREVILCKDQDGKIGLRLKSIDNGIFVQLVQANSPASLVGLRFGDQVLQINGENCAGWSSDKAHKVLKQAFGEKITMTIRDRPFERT

pKd	Binder
below the threshold	QPGTPTRTAV [MAP2K2, P36507]

Each binder was assayed against T1, SYNPO2L, Q9H987 (assay: holdup assay). Conditions: plain residues with an end cap or a label only (N-terminal biotin on a linker: ttds).
Set-up: key: below the threshold = too weak to quantify, mostly under pKd 3.1 to 4

pKd	Binder
below the threshold	QPGTPTRTAV [MAP2K2, P36507]

Each binder was assayed against T2, MPDZ_7, O75970 (assay: holdup assay). Conditions: plain residues with an end cap or a label only (N-terminal biotin on a linker: ttds).
Set-up: key: below the threshold = too weak to quantify, mostly under pKd 3.1 to 4

pKd	Binder
below the threshold	QPGTPTRTAV [MAP2K2, P36507]

What follows are binders tested against T3, PTPN13_5, Q12923 (assay: holdup assay). Conditions: plain residues with an end cap or a label only (N-terminal biotin on a linker: ttds).
Set-up: key: below the threshold = too weak to quantify, mostly under pKd 3.1 to 4

pKd	Binder
below the threshold	QPGTPTRTAV [MAP2K2, P36507]

Each binder was assayed against T4, SHROOM2, Q13796 (assay: holdup assay). Conditions: plain residues with an end cap or a label only (N-terminal biotin on a linker: ttds).
Set-up: key: below the threshold = too weak to quantify, mostly under pKd 3.1 to 4

pKd	Binder
below the threshold	QPGTPTRTAV [MAP2K2, P36507]

These binders were tested against T5, MPDZ_6, O75970 (assay: holdup assay). Conditions: plain residues with an end cap or a label only (N-terminal biotin on a linker: ttds).
Set-up: key: below the threshold = too weak to quantify, mostly under pKd 3.1 to 4

pKd	Binder
below the threshold	QPGTPTRTAV [MAP2K2, P36507]

These binders were tested against MAGI1_3, Q96QZ7 (assay: holdup assay). Conditions: plain residues with an end cap or a label only (N-terminal biotin on a linker: ttds).
Set-up: key: below the threshold = too weak to quantify, mostly under pKd 3.1 to 4

Sequence of MAGI1_3, Q96QZ7 (Q96QZ7 638-725): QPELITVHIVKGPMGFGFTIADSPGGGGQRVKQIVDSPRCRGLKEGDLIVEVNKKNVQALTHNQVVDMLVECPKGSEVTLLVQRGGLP

pKd	Binder
below the threshold	QPGTPTRTAV [MAP2K2, P36507]

These binders were tested against RIMS2, Q9UQ26 (assay: holdup assay). Conditions: plain residues with an end cap or a label only (N-terminal biotin on a linker: ttds).
Set-up: key: below the threshold = too weak to quantify, mostly under pKd 3.1 to 4

Sequence of RIMS2, Q9UQ26 (Q9UQ26 637-758): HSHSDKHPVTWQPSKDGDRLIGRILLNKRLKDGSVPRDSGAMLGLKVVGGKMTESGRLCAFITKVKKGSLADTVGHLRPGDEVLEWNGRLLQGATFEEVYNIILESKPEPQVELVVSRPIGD

pKd	Binder
below the threshold	QPGTPTRTAV [MAP2K2, P36507]

The binders below were run against MAGI3_3, Q5TCQ9 (assay: holdup assay). Conditions: plain residues with an end cap or a label only (N-terminal biotin on a linker: ttds).
Set-up: key: below the threshold = too weak to quantify, mostly under pKd 3.1 to 4

Sequence of MAGI3_3, Q5TCQ9 (Q5TCQ9 572-655): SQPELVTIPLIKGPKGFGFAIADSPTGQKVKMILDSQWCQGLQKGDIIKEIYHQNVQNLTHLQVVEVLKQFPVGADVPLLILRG

pKd	Binder
below the threshold	QPGTPTRTAV [MAP2K2, P36507]

The binders below were run against MAGI1_6, Q96QZ7 (assay: holdup assay). Conditions: plain residues with an end cap or a label only (N-terminal biotin on a linker: ttds).
Set-up: key: below the threshold = too weak to quantify, mostly under pKd 3.1 to 4

Sequence of MAGI1_6, Q96QZ7 (Q96QZ7 1146-1238): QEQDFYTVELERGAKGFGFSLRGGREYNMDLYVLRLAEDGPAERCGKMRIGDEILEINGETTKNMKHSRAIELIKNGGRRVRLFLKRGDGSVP

pKd	Binder
below the threshold	QPGTPTRTAV [MAP2K2, P36507]

Each binder was assayed against RIMS1, Q86UR5 (assay: holdup assay). Conditions: plain residues with an end cap or a label only (N-terminal biotin on a linker: ttds).
Set-up: key: below the threshold = too weak to quantify, mostly under pKd 3.1 to 4

Sequence of RIMS1, Q86UR5 (Q86UR5 584-692): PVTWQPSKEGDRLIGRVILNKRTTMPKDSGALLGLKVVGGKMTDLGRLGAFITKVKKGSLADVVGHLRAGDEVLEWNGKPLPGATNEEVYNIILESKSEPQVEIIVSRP

pKd	Binder
below the threshold	QPGTPTRTAV [MAP2K2, P36507]

Each binder was assayed against T6, USH1C_1, Q9Y6N9 (assay: holdup assay). Conditions: plain residues with an end cap or a label only (N-terminal biotin on a linker: ttds).
Set-up: key: below the threshold = too weak to quantify, mostly under pKd 3.1 to 4

pKd	Binder
below the threshold	QPGTPTRTAV [MAP2K2, P36507]

Each binder was assayed against T7, SNTB2, Q13425 (assay: holdup assay). Conditions: plain residues with an end cap or a label only (N-terminal biotin on a linker: ttds).
Set-up: key: below the threshold = too weak to quantify, mostly under pKd 3.1 to 4

pKd	Binder
below the threshold	QPGTPTRTAV [MAP2K2, P36507]

Each binder was assayed against NHERF2_1, Q15599 (assay: holdup assay). Conditions: plain residues with an end cap or a label only (N-terminal biotin on a linker: ttds).
Set-up: key: below the threshold = too weak to quantify, mostly under pKd 3.1 to 4

Sequence of NHERF2_1, Q15599 (Q15599 9-91): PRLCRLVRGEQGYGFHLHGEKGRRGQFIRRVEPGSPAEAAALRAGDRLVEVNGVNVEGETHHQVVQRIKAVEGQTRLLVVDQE

pKd	Binder
below the threshold	QPGTPTRTAV [MAP2K2, P36507]

Each binder was assayed against PDLIM4, P50479 (assay: holdup assay). Conditions: plain residues with an end cap or a label only (N-terminal biotin on a linker: ttds).
Set-up: key: below the threshold = too weak to quantify, mostly under pKd 3.1 to 4

Sequence of PDLIM4, P50479 (P50479 1-83): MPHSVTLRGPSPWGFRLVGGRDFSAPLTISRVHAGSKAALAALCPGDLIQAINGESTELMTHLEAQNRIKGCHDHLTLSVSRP

pKd	Binder
below the threshold	QPGTPTRTAV [MAP2K2, P36507]

Each binder was assayed against MAGI1_4, Q96QZ7 (assay: holdup assay). Conditions: plain residues with an end cap or a label only (N-terminal biotin on a linker: ttds).
Set-up: key: below the threshold = too weak to quantify, mostly under pKd 3.1 to 4

Sequence of MAGI1_4, Q96QZ7 (Q96QZ7 other isoform, or with tags, fused parts or gaps): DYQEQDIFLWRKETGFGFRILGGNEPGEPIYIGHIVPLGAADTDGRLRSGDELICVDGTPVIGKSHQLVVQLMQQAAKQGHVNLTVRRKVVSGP

pKd	Binder
below the threshold	QPGTPTRTAV [MAP2K2, P36507]

The binders below were run against T8, USH1C_2, Q9Y6N9 (assay: holdup assay). Conditions: plain residues with an end cap or a label only (N-terminal biotin on a linker: ttds).
Set-up: key: below the threshold = too weak to quantify, mostly under pKd 3.1 to 4

pKd	Binder
below the threshold	QPGTPTRTAV [MAP2K2, P36507]

These binders were tested against PTPN13_2, Q12923 (assay: holdup assay). Conditions: plain residues with an end cap or a label only (N-terminal biotin on a linker: ttds).
Set-up: key: below the threshold = too weak to quantify, mostly under pKd 3.1 to 4

Sequence of PTPN13_2, Q12923 (Q12923 1363-1462): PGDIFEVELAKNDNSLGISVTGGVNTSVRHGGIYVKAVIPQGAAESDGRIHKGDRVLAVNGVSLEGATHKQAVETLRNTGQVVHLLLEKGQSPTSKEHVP

pKd	Binder
below the threshold	QPGTPTRTAV [MAP2K2, P36507]

These binders were tested against DLG2_1, Q15700 (assay: holdup assay). Conditions: plain residues with an end cap or a label only (N-terminal biotin on a linker: ttds).
Set-up: key: below the threshold = too weak to quantify, mostly under pKd 3.1 to 4

pKd	Binder
below the threshold	QPGTPTRTAV [MAP2K2, P36507]

These binders were tested against T9, NHERF1_2, O14745 (assay: holdup assay). Conditions: plain residues with an end cap or a label only (N-terminal biotin on a linker: ttds).
Set-up: key: below the threshold = too weak to quantify, mostly under pKd 3.1 to 4

pKd	Binder
below the threshold	QPGTPTRTAV [MAP2K2, P36507]

Each binder was assayed against T10, PDZD2_4, O15018 (assay: holdup assay). Conditions: plain residues with an end cap or a label only (N-terminal biotin on a linker: ttds).
Set-up: key: below the threshold = too weak to quantify, mostly under pKd 3.1 to 4

pKd	Binder
below the threshold	QPGTPTRTAV [MAP2K2, P36507]

Each binder was assayed against T11, PARD6B, Q9BYG5 (assay: holdup assay). Conditions: plain residues with an end cap or a label only (N-terminal biotin on a linker: ttds).
Set-up: key: below the threshold = too weak to quantify, mostly under pKd 3.1 to 4

pKd	Binder
below the threshold	QPGTPTRTAV [MAP2K2, P36507]
